Consider 1 molecule from CN113667016A (PUMISI BIOTECHNOLOGY ZHUHAI CO LTD, dated 2021).

This assay deals with S1-His (SARS-CoV-2, UniProt P0DTC2 16-685).

B1: 89C8 (antibody, V domains shown)
VH: QVQLVQSGAEVKKPGSSVKVSCKASGGTFSSYAISWVRQAPGQGLEWMGGIIPILGIANYAQKFQGRVTITADKSTSTAYMELSSLRSEDTAVYYCARGGLGFGELFRKTGYYFDYWGQGTLVTVSS
VL: EIVMTQSPATLSVSPGERATLSCRASQSVSSNLAWYQQKPGQAPRLLIYAASTRATAIPARFSGSGSGTEFTLTISSLQSEDFAVYFCQQYNKLPLTFGGGTKVDIKR
Broadly, the Kd is the concentration at which binding is half-saturated. A high value points to lower affinity. A word on the koff: it is the first-order rate constant of dissociation. Read a low koff as slow dissociation. Usually kon stands for a measure of how fast the partners come together. Turning to B1, the dissociation constant Kd was 7.6 nM, the koff came out at 0.000385 s⁻¹ and the kon turned out to be 50400 M⁻¹ s⁻¹.
